# Measured values from patent publication US20240124531A1, “COMPOUNDS AND METHODS FOR EXTENDING HALF LIFE OF BIOMOLECULES” (AFFILOGIC, priority 2021, published 2024).
# Tests used:
# [1] = fluorescein alone, single i.v. injection, analysis of literature data (Chahal et al.); cited from earlier work
# [2] = biological target: T1, human serum albumin domain III (aa381-585) (human, UniProt P02768 405-609); test: biolayer interferometry, His-tagged F06 on Ni-NTA biosensors, albumin domain at 250 nM, response at 180 s
# T1 construct: range 381-585; The residue numbers probably count on mature albumin (585 residues)
# Description: (§1) The albumin is described as having three domains, dubbed domain I, II and III. Interaction of the albumin with the FcRn receptor involves domain I and III. Domain I (aa1-197), domain II (aa189-385), and domain III (aa381-585) and Domain I-II (aa1-385) were obtained from Albumin Bioscience. Interaction of the anti-albumin Nanofitins with the different domains was investigated by biolayer interferometry according to the following procedure. […] The sensors were then allowed to equilibrate for 60 sec in protein free blocking buffer (Thermo Scientific) supplemented with 0.002% of tween20.
# [3] = biological target: T2, human serum albumin Domain I (aa1-197) (human, UniProt P02768 25-221); test: as above
# T2 construct: range 1-197; Domain III ends at 585, so they probably count on mature albumin (585 residues) and not on the precursor entry
# Description: as §1
# [4] = biological target: T3, Rabbit serum albumin (Rabbit, UniProt P49065 25-608); test: biolayer interferometry, cross reactivity on albumins of different species; legend: '-' symbol refers to an absence of detectable binding
# T3 construct: also called RabSA; RabSa
# [5] = biological target: T4, human serum albumin (human, UniProt P02768 25-609, biotinylated (sites not given) in the biolayer interferometry of Example 1); test: biolayer interferometry (octet red96); biotinylated HSA on streptavidin biosensors, Nanofitin 15.6-1000 nM
# T4 construct: Biotinylated HSA immobilised on streptavidin biosensors; also called HSA
# [6] = biological target: T5, Cynomolgus monkey serum albumin (Cynomolgus monkey, UniProt A2V9Z4 25-608); test: biolayer interferometry, cross reactivity pattern (graded strength of binding)
# T5 construct: also called CSA
# [7] = biological target: T6, Rat serum albumin (Rat, UniProt P02770 25-608); test: as above
# T6 construct: also called RSA
# [8] = biological target: T7, Mouse serum albumin (Mouse, UniProt P07724 25-608); test: as above
# T7 construct: also called MSA
# T7 sequence (P07724 25-608 limits assumed): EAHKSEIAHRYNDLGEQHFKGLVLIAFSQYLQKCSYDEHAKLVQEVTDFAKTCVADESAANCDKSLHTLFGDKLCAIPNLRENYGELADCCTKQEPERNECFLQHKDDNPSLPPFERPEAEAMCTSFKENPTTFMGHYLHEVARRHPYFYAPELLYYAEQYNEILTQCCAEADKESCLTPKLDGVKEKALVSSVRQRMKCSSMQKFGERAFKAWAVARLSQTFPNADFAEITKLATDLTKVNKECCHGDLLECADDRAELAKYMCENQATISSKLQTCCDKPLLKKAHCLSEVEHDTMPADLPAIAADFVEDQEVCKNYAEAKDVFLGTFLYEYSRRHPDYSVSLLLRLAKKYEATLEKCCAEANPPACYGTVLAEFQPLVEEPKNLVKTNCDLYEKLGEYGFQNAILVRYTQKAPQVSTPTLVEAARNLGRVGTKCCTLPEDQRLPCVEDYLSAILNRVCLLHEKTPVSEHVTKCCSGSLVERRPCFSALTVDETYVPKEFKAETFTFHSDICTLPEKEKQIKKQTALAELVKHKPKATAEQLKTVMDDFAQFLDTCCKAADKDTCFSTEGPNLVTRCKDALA
# T3 sequence (P49065 25-608 limits assumed): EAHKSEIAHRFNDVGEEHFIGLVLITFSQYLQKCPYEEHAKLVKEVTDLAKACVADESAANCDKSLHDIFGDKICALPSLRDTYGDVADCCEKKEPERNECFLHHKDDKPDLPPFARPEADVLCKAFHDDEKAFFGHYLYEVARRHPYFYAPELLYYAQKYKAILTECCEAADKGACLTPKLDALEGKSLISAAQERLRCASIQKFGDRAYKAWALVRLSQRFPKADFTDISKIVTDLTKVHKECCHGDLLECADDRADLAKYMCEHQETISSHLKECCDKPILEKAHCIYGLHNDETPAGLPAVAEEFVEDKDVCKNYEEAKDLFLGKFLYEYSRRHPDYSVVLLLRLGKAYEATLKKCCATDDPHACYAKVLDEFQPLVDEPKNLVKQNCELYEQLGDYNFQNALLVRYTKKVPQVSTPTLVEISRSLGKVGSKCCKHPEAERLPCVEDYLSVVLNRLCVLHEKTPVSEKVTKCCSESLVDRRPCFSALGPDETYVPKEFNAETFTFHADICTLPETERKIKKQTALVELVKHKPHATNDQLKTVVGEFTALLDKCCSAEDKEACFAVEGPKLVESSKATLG
# T5 sequence (A2V9Z4 25-608 limits assumed): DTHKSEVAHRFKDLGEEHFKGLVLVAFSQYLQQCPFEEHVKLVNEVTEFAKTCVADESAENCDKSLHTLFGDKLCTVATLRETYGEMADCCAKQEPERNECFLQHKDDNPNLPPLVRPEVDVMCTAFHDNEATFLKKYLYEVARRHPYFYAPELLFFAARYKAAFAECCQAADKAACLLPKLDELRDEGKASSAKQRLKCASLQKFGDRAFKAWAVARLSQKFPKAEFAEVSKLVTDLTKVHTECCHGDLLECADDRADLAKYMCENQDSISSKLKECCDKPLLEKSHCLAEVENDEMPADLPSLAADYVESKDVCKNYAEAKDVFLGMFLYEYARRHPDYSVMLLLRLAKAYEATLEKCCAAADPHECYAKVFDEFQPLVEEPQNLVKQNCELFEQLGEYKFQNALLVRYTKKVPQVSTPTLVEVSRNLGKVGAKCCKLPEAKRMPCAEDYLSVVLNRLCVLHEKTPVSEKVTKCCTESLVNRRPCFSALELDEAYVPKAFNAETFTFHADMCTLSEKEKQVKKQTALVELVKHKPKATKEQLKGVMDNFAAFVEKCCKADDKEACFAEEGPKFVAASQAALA
# T6 sequence (P02770 25-608 limits assumed): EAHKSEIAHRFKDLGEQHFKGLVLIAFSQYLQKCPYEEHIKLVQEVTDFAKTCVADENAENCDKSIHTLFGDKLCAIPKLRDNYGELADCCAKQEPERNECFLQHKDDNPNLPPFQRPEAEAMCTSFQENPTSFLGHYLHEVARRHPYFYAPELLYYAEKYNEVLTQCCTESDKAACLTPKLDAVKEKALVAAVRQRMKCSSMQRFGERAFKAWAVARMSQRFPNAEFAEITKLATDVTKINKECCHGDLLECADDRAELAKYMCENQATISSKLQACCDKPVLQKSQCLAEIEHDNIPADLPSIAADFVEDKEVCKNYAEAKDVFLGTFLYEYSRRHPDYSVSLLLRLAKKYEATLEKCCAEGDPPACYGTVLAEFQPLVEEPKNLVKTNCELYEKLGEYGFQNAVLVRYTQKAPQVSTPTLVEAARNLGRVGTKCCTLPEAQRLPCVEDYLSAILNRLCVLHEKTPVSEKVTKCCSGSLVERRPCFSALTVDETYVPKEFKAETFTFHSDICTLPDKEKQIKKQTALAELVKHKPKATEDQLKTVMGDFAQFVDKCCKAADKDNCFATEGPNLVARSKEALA
Molecule,t1/2 in mouse serum [1],binding result [2],binding result [3],binding result [4],Kd [5] [nM],koff [5] [s⁻¹],binding result [6],binding result [7],binding result [8]
O=C1OC2(c3ccc(O)cc3Oc3cc(O)ccc32)c2ccccc21 [Fluorescein],about 8 min,,,,,,,,
"Nanofitin F06 (designed binder, also called anti-albumin Nanofitin) VKVKFVFSGEEKEVETSKIKWVLRWGKAVGFKYDDQGKIGYGFVAEKDAPKELLDMLARAEREK",,no binding (tested: 250 nM),no binding (tested: 250 nM),no binding,8.38,0.000304,,,
"Nanofitin B11 (designed binder, Variant of Sac7d; also called anti-albumin Nanofitin) VKVKFWPRGEEKVVDTSKIAWVLRADKTVMFKYDDNGKKGYGVVLEKDAPKELLDMLARAEREK",,,,no binding,,,binds,binds,binds
